Data set [1] is described as follows: Real-time stability (SEC, A280, PAGE) in TBS pH7.4. It is filed as physicochemical. As for the experimental part:
Real-time stability measurements were performed by incubating SEQ ID NO:1 (UTI-Fc1) or CN 103044554 A, SEQ IDS 2 or 6 at 2-8° C., and 40° C. for 0, 2 and 4 weeks in TBS, pH7.4 buffer. The formation of higher and lower molecular weight species was determined by size exclusion chromatography (SEC) and visualized with polyacrilamide gel electrophoresis (PAGE). The concentration of each UTI-Fc was also monitored by determination of the absorbance of the solution at 280 nm (A280), using extinction coefficients determine by the protein composition. The UTI-Fc molecules produce two, partially overlapping peaks, when analyzed by SEC. The percentage peak area in each UTI-Fc sample measured by SEC is reported in Table 9 at time=0 weeks, 2 weeks, and 4 weeks. Also shown is the percentage change in concentration measured by A280 (% A (mg/ml)) at time=2 weeks and 4 weeks. The initial TO concentration of each sample was UTI-Fc1=33.5 mg/mL, CN 103044554 A SEQ ID 2=8.5 mg/mL, and CN 103044554 A SEQ ID 6=5.6 mg/mL. A variability of 3% is typical for SEC and 15% for individual UV measurements.

The test system of the next data set is chymotrypsin. The data set can be described thus: Protease inhibition at Reaction Biology Corporation: chymotrypsin. The data set is classed as biochemical. Particulars: FIG. 6, FIG. 7. Here is the method: (§1) Measurement of the inhibition of other proteases by UTI-Fc1 was also measured at Reaction Biology Corporation (Malvern, Pa.). […] FIG. 7 lists the inhibitory constants of UTI-Fc1 for a variety of proteases.

A further data set concerns the target cathepsin C (Homo sapiens, UniProt P53634). The data set can be described thus: Protease inhibition at Reaction Biology Corporation: cathepsin C. The data set is classed as biochemical. Particulars: FIG. 7. As for the experimental part: as §1
A further data set concerns the target T1, papain (Carica papaya, UniProt P00784).
T1 sequence (P00784 134-345): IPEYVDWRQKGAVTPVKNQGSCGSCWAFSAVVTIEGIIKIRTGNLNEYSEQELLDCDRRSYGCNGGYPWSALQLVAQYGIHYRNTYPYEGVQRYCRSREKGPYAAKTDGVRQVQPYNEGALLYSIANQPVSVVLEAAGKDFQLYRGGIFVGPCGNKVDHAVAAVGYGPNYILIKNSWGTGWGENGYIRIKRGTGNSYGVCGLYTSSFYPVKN
The data set can be described thus: Protease inhibition at Reaction Biology Corporation: papain. It is filed as biochemical. Particulars: FIG. 7. Here is the method:
as §1

Data set [2] can be described thus: Thermal stability by differential scanning calorimetry. The data set is classed as physicochemical. Here is the method: Assays were performed to measure the thermal and real-time stability. […] Thermal stability was measured by differential scanning calorimetry on a Microcal VP-DSC calorimeter. Samples were prepared at 1 mg/ml and buffered in 0.25 mM Tris pH7.4, 0.13M NaCl and 0.0027M KCl. Samples were heated from 25° C. to 110° C. at a rate of 200° C. per hour. UTI-Fc1 was compared to Application Publication Number CN 103044554 A, SEQ ID's 2 and 6, which comprise an IgG2 or IgG1 Fc domain respectively.
Background: In DSC, transitions show as peaks or steps in heat flow.

The target of another data set is T2, caspase-1 (Homo sapiens, UniProt P29466).
T2 sequence (P29466 120-404): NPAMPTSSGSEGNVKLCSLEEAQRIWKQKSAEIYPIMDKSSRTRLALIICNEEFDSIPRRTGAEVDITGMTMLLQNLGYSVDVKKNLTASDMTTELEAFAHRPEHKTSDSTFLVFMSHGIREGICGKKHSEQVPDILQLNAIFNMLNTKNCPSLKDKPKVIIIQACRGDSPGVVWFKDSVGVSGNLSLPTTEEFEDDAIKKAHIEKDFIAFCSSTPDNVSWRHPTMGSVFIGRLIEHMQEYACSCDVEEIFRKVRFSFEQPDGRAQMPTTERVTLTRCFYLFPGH
The data set can be described thus: Protease inhibition at Reaction Biology Corporation: caspase-1. It is filed as biochemical. Particulars: FIG. 7. Here is the method: as §1

The next data set deals with plasmin (Homo sapiens, UniProt P00747). The data set can be described thus: Protease inhibition at Reaction Biology Corporation: plasmin. The data set is classed as biochemical. Particulars: FIG. 7. Here is the method:
as §1

The subject of another data set is C5a. The data set can be described thus: LPS induced C5a in C3H mice (complement inhibition in vivo). More on the design: species or system C3h/HeJ mice. Particulars: 4 hours post LPS dose, p<0.05, FIG. 10. Here is the method:
UTI-Fc1 (SEQ ID NO:1) affects on the complement system were measured in vivo. Female, C3h/HeJ mice were purchased from Jackson Laboratories. Animals are dosed according to the experimental design Table 10. Animals were injected i.p. (100 ul/mouse) 15 minutes post dose with LPS at time zero. Animals were euthanized at 2 and 4 hours post LPS injection by CO2 overdose and blood was collected by cardiac puncture. Blood was transferred to serum separator microtubes and allowed to clot at room temperature for 30 minutes. Subsequently, microtubes were centrifuged at 12,000 rpm for 5 minutes and serum was removed and aliquoted to a 96 well plate. Rosmarinic acid was used as a positive control and used as 3 mg/ml in saline. The 96 well plate was frozen at −20° C. Serum samples were analyzed for C5a content by duoset. Statistical significance was determined using Prism graphing software and effects were considering statistically significant if p<0.05.

Another data set deals with plasma kallikrien (Homo sapiens, UniProt P03952). Particulars: full-length UTI (Morishita et al. 1994); cited from earlier work.
plasma kallikrien, sequence (P03952 20-638): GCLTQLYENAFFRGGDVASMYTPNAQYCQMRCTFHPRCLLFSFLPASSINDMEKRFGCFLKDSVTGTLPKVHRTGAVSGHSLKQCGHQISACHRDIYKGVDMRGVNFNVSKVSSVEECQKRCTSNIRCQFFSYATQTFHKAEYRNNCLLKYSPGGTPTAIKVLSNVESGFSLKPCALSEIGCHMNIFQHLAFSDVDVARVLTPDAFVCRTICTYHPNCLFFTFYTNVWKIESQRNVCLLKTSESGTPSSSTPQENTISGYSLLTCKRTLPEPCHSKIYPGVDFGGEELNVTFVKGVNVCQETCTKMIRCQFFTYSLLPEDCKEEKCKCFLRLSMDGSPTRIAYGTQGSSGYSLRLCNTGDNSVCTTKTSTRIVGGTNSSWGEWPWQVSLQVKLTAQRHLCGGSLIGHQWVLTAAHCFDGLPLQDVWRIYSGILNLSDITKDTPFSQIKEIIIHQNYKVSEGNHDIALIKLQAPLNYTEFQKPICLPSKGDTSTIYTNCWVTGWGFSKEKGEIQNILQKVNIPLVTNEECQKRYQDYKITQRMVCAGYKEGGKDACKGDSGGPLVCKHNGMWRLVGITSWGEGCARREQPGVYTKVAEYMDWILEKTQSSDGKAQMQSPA
The next data set deals with T3, Human pancreatic trypsin (Homo sapiens, UniProt P07477).
T3 construct: purchased Athens Research & Technology, Inc
The data set can be described thus: In vitro enzymatic assay for trypsin inhibition. It is filed as biochemical. Particulars: human pancreatic trypsin 1.5 nM, 15 min pre-incubation, FIG. 5. Here is the method:
Solutions of UTI-Fc1 at various concentrations 200 nM final concentration) are prepared in 50 mM HEPES, 150 mM NaCl, 20 mM CaC12 and 0.01% Brij L23, pH 7.4. Activity assays were performed in Greiner 384-well small volume plates. All steps were conducted at ambient temperature.
Human pancreatic trypsin (1.5 nM final concentration) (Athens Research & Technology, Inc) was added to the dilutions then pre-incubated with the test UTI-Fc for 15 minutes. Next, the reaction was initiated with 100 μM (final) of substrate N[…]-Benzoyl-L-arginine-7-amido-4-methylcoumarin hydrochloride SIGMA B7260-25 MG. The reaction mixture total volume was 20 µl. Trypsin activity was determined via fluorescence. For example, the fluorescence intensity was determined in kinetic mode over a window of 30 to 60 minutes on a BMG PHERAstar FS or PHERAstar plus using an excitation wavelength of 370 nm and an emission wavelength of 470 nm. Trypsin activity was linearly proportional to the change in fluorescence observed (final−initial). […]
Where: Fi was the observed fluorescence at a given concentration of test UTI-Fc.
Fp was the observed fluorescence of a positive control i.e., the average value of 2 to 6 assays in the absence of Trypsin.
Fn was the observed fluorescence of a negative control i.e., the average value of 2 to 6 assays of Trypsin in the presence of vehicle alone. […]

A further data set has as its target Factor Xa (Homo sapiens, UniProt P00742). Particulars: full-length UTI (Morishita et al. 1994); cited from earlier work.
For data set [3], the system named is trypsin-induced IL-6 production in BEAS2B cells. The data set can be described thus: Inhibition of trypsin-induced IL-6 release in BEAS2B cells. Particulars: 100 nM trypsin, 8 hours, FIG. 8. It is filed as cell-based, human. As for the experimental part: UTI-Fc1 inhibition of cytokine release was measure in a cell-based assay. BEAS2B cells were seeded at the density of 20,000 cells/well in 96 well plate and cultured using complete BEGM Bullet Kit (Lonza) in CO2 incubator. After 24 hours, the culture media were replaced with plain DMEM for starvation and cells were cultured overnight. Then cells were incubated with fresh plain DMEM containing 100 nM trypsin with various concentrations of human urine UTI or recombinant UTI-Fc1 proteins. After 8 hours, culture supernatants were collected and IL-6 protein levels were assessed using human IL-6 DuoSet (R&D Systems).

The conditions of data set [4]: rodents and humans (Fries et al 2000); cited from earlier work.
Setting [5] is: 1 mg/ml, Tris pH7.4, 25° C. to 110° C. at 200° C. per hour.

plasmin, sequence (P00747 581-810 limits assumed, species assumed): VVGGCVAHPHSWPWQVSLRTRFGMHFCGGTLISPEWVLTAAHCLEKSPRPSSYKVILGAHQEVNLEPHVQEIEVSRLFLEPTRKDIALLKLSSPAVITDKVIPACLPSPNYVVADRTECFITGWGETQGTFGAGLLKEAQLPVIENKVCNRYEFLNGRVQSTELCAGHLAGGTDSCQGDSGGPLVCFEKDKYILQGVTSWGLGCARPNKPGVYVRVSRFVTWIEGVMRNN
plasmin, sequence (P00747 97-580 partner limits assumed, species assumed): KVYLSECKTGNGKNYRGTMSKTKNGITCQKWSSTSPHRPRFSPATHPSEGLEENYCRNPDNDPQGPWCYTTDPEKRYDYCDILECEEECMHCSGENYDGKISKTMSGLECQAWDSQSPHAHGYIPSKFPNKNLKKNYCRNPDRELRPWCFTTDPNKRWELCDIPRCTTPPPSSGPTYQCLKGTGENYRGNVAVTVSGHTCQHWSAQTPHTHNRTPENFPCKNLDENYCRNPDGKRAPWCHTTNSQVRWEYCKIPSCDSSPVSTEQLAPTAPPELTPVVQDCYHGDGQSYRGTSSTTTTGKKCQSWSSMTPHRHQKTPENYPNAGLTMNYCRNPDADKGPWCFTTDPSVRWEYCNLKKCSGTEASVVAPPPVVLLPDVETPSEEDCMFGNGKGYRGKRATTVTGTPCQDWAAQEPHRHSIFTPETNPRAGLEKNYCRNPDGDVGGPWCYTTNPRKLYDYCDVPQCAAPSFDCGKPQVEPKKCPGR
cathepsin C, sequence (P53634 25-463, species assumed): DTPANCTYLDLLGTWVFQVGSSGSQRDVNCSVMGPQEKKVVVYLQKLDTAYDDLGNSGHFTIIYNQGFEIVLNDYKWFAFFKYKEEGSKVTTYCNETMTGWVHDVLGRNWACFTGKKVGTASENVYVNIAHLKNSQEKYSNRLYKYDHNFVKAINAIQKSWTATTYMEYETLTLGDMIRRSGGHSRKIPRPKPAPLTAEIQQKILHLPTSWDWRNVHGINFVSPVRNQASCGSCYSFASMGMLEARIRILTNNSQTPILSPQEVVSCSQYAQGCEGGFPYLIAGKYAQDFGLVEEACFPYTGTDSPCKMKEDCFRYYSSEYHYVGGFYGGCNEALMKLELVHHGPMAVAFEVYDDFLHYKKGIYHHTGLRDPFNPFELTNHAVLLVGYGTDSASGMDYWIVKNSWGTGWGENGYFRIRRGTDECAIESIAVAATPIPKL
Factor Xa, sequence (P00742 235-488 limits assumed): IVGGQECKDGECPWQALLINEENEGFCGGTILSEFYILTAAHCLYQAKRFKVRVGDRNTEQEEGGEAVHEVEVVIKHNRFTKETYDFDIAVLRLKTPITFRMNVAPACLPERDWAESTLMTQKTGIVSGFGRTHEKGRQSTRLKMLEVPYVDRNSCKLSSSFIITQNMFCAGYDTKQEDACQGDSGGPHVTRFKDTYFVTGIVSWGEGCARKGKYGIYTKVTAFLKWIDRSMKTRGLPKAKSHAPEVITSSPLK
Factor Xa, sequence (P00742 41-179 partner limits assumed): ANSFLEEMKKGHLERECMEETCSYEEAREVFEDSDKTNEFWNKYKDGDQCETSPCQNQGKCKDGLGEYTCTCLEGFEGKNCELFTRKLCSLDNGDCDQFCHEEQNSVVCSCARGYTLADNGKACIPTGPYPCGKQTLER

As to “UTI-Fc1: UTI-Fc fusion protein, human UTI domain linked to wild type IgG1 Fc, SEQ ID NO: 1”, the “SEC percentage peak area Peak1” value was 35.7% in data set [1] (0 weeks); 36.2% in data set [1] (2 weeks at 2-8° C.); 37.1% in data set [1] (2 weeks at 40° C.); 36.1% in data set [1] (4 weeks at 2-8° C.); 36.8% in [1] (4 weeks at 40° C.). Further, the “SEC percentage peak area Peak2” value in data set [1] (0 weeks) is listed as 64.3%; in data set [1] (2 weeks at 2-8° C.), 63.8%; in [1] (2 weeks at 40° C.), 62.9%; in data set [1] (4 weeks at 2-8° C.), 63.9%; in data set [1] (4 weeks at 40° C.), 63.2%. Also, the “% Δ (mg/ml), percentage change in concentration by A280” value in [1] (2 weeks at 2-8° C.) amounted to 9.2%; in data set [1] (2 weeks at 40° C.), 0.2%; in [1] (4 weeks at 2-8° C.), 1.2%; in data set [1] (4 weeks at 40° C.), 11.9%. For the same molecule, the inhibition of chymotrypsin result in the data set with chymotrypsin is reported as “moderately”. For the same molecule, the “inhibition of cathepsin C” value with cathepsin C was “weak inhibition”. For the same molecule, the inhibition of papain result with papain is reported as “weak inhibition”. In addition, in [2], the “thermal stability compared to the UTI fusion proteins of CN 103044554A” value is reported as “greater thermal stability”. Also, in [2] (setting [5]), the “DSC Tm1” value amounted to 70.86 °C. Also, the “DSC Tm2” value in [2] (setting [5]) was 85.79 °C. In the data set with caspase-1, the “inhibition of caspase-1” value is recorded as “weak inhibition”. In the data set with plasmin, the inhibition of plasmin result was “moderately”. The “serum C5a” value with C5a (20 mg/kg iv), with C5a (50 mg/kg iv) and in the data set with C5a (100 mg/kg iv) was “significantly reduced” throughout.

B1: UTI: Urinary Trypsin Inhibitor, protease inhibitor of about 40 kD present in human urine and blood (protein)
chain: AVLPQEEEGSGGGQLVTEVTKKEDSCQLGYSAGPCMGMTSRYFYNGTSMACETFQYGGCMGNGNNFVTEKECLQTCRTVAACNLPIVRGPCRAFIQLWAFDAVKGKCVLFPYGGCQGNGNKFYSEKECREYCGVPGDGDEELLRFSN
On to B1, for which the “inhibition of plasma kallikrien” value with plasma kallikrien is “does not show inhibition”. Besides, the IC50 – broadly, the concentration that gives 50% inhibition – in the data set with Human pancreatic trypsin was around 3 nM. The “inhibition of Factor Xa” value in the data set with Factor Xa is given as “does not show inhibition”. In addition, the “IC50 of trypsin-induced IL-6 production” value in [3] stood at 0.40 µg/mL. In addition, the half-life (as a rule, the time in which the quantity being followed falls by half) in data set [4] was 4 to 30 min.

These data come from patent publication US10351618B2, “UTI fusion proteins” (Takeda Pharmaceutical Company Limited, priority 2014, dated 2019).
